The results in this text go back to publication PMC2917047.

As usually defined, the stoichiometry N is a count of units in the complex or per binding partner.

This assay deals with PDE6αβ catalytic dimer of rod cGMP phosphodiesterase 6 (bovine) (UniProt P11541). The assay is described as follows: SDS-PAGE with Coomassie Blue densitometry of the purified complexes.
Chain of PDE6αβ catalytic dimer of rod cGMP phosphodiesterase 6 (bovine) (P11541 whole entry, chain 1 of 2): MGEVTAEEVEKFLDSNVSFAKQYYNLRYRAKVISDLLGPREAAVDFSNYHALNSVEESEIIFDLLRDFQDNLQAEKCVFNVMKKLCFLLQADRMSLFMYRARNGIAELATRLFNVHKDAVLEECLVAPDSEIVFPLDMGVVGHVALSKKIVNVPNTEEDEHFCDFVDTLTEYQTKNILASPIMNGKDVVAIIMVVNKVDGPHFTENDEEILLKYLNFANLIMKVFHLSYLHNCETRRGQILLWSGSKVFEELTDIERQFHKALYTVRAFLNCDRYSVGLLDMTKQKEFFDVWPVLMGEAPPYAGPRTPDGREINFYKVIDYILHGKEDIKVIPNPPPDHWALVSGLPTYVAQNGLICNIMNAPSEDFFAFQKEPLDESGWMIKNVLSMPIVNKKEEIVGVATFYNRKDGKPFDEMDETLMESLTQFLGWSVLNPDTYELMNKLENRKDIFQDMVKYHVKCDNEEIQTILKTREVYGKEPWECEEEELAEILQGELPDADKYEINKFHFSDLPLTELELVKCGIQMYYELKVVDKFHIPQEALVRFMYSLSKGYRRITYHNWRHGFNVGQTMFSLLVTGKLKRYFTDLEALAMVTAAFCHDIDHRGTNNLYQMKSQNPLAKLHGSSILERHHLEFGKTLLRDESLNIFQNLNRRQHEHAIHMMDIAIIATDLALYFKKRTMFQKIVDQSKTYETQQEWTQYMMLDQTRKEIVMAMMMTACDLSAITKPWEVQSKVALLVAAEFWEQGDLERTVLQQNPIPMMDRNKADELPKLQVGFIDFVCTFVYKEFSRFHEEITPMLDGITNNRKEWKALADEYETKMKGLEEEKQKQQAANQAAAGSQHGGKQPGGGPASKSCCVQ
Chain of PDE6αβ catalytic dimer of rod cGMP phosphodiesterase 6 (bovine) (P23439 whole entry, chain 2 of 2, further chain): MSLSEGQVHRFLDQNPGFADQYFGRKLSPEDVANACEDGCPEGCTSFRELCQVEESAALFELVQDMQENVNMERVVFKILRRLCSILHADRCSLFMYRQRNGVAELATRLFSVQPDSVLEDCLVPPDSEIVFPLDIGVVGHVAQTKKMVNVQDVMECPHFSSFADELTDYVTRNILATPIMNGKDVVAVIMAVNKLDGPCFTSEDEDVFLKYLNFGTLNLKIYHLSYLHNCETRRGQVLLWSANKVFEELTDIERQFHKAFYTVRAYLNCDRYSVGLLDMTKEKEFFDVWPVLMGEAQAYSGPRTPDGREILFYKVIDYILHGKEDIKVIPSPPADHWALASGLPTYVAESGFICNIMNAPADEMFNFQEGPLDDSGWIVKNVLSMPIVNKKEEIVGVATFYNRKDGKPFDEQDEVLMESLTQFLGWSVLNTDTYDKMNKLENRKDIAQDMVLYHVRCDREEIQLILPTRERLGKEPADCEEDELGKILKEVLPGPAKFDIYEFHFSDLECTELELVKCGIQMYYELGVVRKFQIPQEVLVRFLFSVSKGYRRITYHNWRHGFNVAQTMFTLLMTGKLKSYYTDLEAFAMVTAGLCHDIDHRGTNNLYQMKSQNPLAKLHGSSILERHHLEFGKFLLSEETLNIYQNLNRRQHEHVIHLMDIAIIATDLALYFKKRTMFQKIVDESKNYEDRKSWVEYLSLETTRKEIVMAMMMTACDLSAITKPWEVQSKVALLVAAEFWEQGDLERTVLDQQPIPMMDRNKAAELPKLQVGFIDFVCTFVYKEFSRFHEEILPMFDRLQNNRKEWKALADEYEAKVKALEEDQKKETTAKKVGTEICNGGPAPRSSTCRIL

B1: PDE6γ regulatory (inhibitory) subunit of rod cGMP phosphodiesterase 6 (natural protein)
chain: MNLEPPKAEIRSATRVMGGPVTPRKGPPKFKQRQTRQFKSKPPKKGVQGFGDDIPGMEGLGTDITVICPWEAFNHLELHELAQYGII
The molecule B1 yielded a stoichiometry N of 2.
